Measurements: patent publication US20230303695A1 (SHANGHAI XBH BIOTECHNOLOGY, published 2023)
Residue numbers refer to the chain shown, from its start. Numbers in names are those of the source. Blank lines part the entries; values can stand above or below the binder they belong to.

Target: T1, recombinant human IGSF8 extracellular domain tagged by a human Fc region (IGSF8-hFc) (human, UniProt Q969P0 28-579, biotin label in Examples 17, 18 and 28 (site not given))
T1 construct: also called IGSF8-Fc fusion protein; IGSF8-hFc-biotin; not shown: human Fc region
T1 sequence: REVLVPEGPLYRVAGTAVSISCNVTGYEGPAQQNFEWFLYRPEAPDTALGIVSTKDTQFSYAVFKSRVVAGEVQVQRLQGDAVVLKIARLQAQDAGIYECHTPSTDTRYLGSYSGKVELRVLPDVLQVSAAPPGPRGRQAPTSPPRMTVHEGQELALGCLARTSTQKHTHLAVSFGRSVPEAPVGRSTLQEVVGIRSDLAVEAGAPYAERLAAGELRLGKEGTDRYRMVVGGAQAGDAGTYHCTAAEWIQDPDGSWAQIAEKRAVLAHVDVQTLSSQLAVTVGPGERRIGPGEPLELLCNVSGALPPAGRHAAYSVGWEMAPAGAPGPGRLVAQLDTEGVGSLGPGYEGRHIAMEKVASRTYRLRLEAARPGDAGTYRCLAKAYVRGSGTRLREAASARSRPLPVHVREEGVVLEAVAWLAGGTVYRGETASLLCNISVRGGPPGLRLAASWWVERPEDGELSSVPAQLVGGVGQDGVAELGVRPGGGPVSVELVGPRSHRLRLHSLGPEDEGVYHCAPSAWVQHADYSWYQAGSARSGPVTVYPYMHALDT
Assay: SPR, Ab captured
Experimental: The binding affinities of the L1 and L2 antibodies to IGSF8 recombinant protein were determined by surface plasmon resonance (SPR). Briefly, anti-human Fab antibody was imobilized on acarboxyl-derivatized SPR chip surface, and the antibodies were captured on the resulting surface at 5 μg/ml for 30 seconds.

B10: L1-02 (antibody, V domains shown)
VH: QVQLVESGGGVVQPGRSLRLSCAASGFTFSTYGMHWVRQAPGKGLEWVAVIWDDGSYKYYGDSVKGRFTISRDNSKNTLYLQMNSLRAEDTAVYYCARDGSGWGYAFDIWGQGTMVTVSS
VL: DIQLTQSPSSLSASVGDRVTITCQASQDISKPLNWYQHKPGKAPNPLVFDAANLETGVPPRFSATGSGTDFSLTITSLQPEDFATYYCQQYDSFPYTFGQGTRLDIK
- Kd: 4.22 nM
- koff: 0.00127 s⁻¹
- kon: 300000 M⁻¹ s⁻¹

B11: L1-16 (antibody, V domains shown)
VH: B10 VH with M115L
VL: DIQMTQSPSSLSASVGDRVTITCQASQDIGPWLNWYQQKPGKAPKLLIYGSPNLETGVPSRFSGSGSGTDFTFTISSLQPEDIATYYCQQYDSFPYTFGQGTKVEIK
- Kd: 3.33 nM
- koff: 0.00111 s⁻¹
- kon: 333000 M⁻¹ s⁻¹

B12: L1-17 (antibody, V domains shown)
VH: B10 VH with M115L
VL: B11 VL with G50D, S51A
- Kd: 3.78 nM
- koff: 0.0012 s⁻¹
- kon: 318000 M⁻¹ s⁻¹

B13: L1-04 (antibody, V domains shown)
VH: B10 VH
VL: B10 VL with K31E, P32Y, D50G, A51S, A52P
- Kd: 7.33 nM
- koff: 0.0022 s⁻¹
- kon: 300000 M⁻¹ s⁻¹

B14: L1-14 (antibody, V domains shown)
VH: B10 VH
VL: B10 VL with K31E, P32Y, D50S, A51Q, A52P
- Kd: 6.41 nM
- koff: 0.00244 s⁻¹
- kon: 381000 M⁻¹ s⁻¹

B16: L1VH-D53Y (antibody, V domains shown)
VH: B10 VH with D53Y
VL: B10 VL with K31E, P32Y
- Kd: 365 nM
- koff: 0.0168 s⁻¹
- kon: 46100 M⁻¹ s⁻¹

B17: L1-13 (antibody, V domains shown)
VH: B10 VH
VL: B10 VL with K31E, P32Y, A52P
- Kd: 4.88 nM
- koff: 0.00216 s⁻¹
- kon: 443000 M⁻¹ s⁻¹

B21: L1-05 (antibody, V domains shown)
VH: B10 VH
VL: B10 VL with S30T, P32G
- Kd: 6.17 nM
- koff: 0.00148 s⁻¹
- kon: 241000 M⁻¹ s⁻¹

B22: L1-09 (antibody, V domains shown)
VH: B10 VH
VL: B10 VL with K31E, P32Y, D50A, A51R, A52D
- Kd: 5.47 nM
- koff: 0.00223 s⁻¹
- kon: 408000 M⁻¹ s⁻¹

B23: L1-06 (antibody, V domains shown)
VH: B10 VH
VL: B10 VL with S30G, K31P, P32W
- Kd: 2.3 nM
- koff: 0.00104 s⁻¹
- kon: 453000 M⁻¹ s⁻¹

B24: L1-11 (antibody, V domains shown)
VH: B10 VH
VL: B10 VL with S30E, K31W, P32A
- Kd: 7.08 nM
- koff: 0.0024 s⁻¹
- kon: 339000 M⁻¹ s⁻¹

B25: L1-10 (antibody, V domains shown)
VH: B10 VH
VL: B10 VL with K31E, P32Y, D50T, A51S
- Kd: 6.52 nM
- koff: 0.00196 s⁻¹
- kon: 301000 M⁻¹ s⁻¹

B26: L1-12 (antibody, V domains shown)
VH: B10 VH
VL: B10 VL with K31E, P32Y, D50G, A52D
- Kd: 3.08 nM
- koff: 0.00142 s⁻¹
- kon: 461000 M⁻¹ s⁻¹

B27: L1-03 (antibody, V domains shown)
VH: B10 VH
VL: B10 VL with K31E, P32Y, D50R, A51S, A52P
- Kd: 5.88 nM
- koff: 0.00172 s⁻¹
- kon: 293000 M⁻¹ s⁻¹

B28: L1-08 (antibody, V domains shown)
VH: B10 VH
VL: B10 VL with S30G, K31A, P32Y
- Kd: 5.78 nM
- koff: 0.00253 s⁻¹
- kon: 437000 M⁻¹ s⁻¹

B29: L1-15 (antibody, V domains shown)
VH: B10 VH
VL: B10 VL with S30M, P32T
- Kd: 4.28 nM
- koff: 0.00155 s⁻¹
- kon: 362000 M⁻¹ s⁻¹

B33: L1-07 (antibody, V domains shown)
VH: B10 VH
VL: B10 VL with S30E, K31W, P32W
- Kd: 1.34 nM
- koff: 0.000445 s⁻¹
- kon: 332000 M⁻¹ s⁻¹

Next, values leading:

- Kd: 465 nM
- koff: 0.00567 s⁻¹
- kon: 12200 M⁻¹ s⁻¹
B1: L2VH-D31S (antibody, V domains shown)
VH: EVQLVESGGGLEQPGGSLRLSCAGSGFTFRSYAMTWVRQAPGKGLEWVSSISGSGGNTYYADSVKGRFTISRDNSKNTLYLQMNSLRAEDTAIYYCARGEYSSGWPSWFDPWGQGTLVTVSS
VL: EIVLTQSPSSLSASVGDRVTISCRASRTVGTFLNWYQQRPGKPPQALILGVSILEGGVSSRFSGAGSGTEFSLTISSLQPEDIGTYYCQQSHDVPRTFGQGTKVDLR

- Kd: 146 nM
- koff: 0.00165 s⁻¹
- kon: 11400 M⁻¹ s⁻¹
B2: L2VH-R30S (antibody, V domains shown)
VH: B1 VH with R30S, S31D
VL: B1 VL

- Kd: 68 nM
- koff: 0.00202 s⁻¹
- kon: 29700 M⁻¹ s⁻¹
B3: L2VL-D93S (antibody, V domains shown)
VH: B1 VH with S31D
VL: B1 VL with D93S

- Kd: 22.8 nM
- koff: 0.00139 s⁻¹
- kon: 61100 M⁻¹ s⁻¹
B4: L2VH-T35S (antibody, V domains shown)
VH: B1 VH with S31D, T35S
VL: B1 VL

- Kd: 1280 nM
- koff: 0.00173 s⁻¹
- kon: 1350 M⁻¹ s⁻¹
B5: L2VL-I53S (antibody, V domains shown)
VH: B1 VH with S31D
VL: B1 VL with I53S

- Kd: 29.1 nM
- koff: 0.00311 s⁻¹
- kon: 107000 M⁻¹ s⁻¹
B6: L2VL-G56S (antibody, V domains shown)
VH: B1 VH with S31D
VL: B1 VL with G56S

- Kd: 64.5 nM
- koff: 0.000806 s⁻¹
- kon: 12500 M⁻¹ s⁻¹
B7: L2VL-S52V (antibody, V domains shown)
VH: B1 VH with S31D
VL: B1 VL with S52V

- Kd: 48.7 nM
- koff: 0.00248 s⁻¹
- kon: 51000 M⁻¹ s⁻¹
B8: L2VH-R98K (antibody, V domains shown)
VH: B1 VH with S31D, R98K
VL: B1 VL

- Kd: 23.7 nM
- koff: 0.000486 s⁻¹
- kon: 20500 M⁻¹ s⁻¹
B9: L2VH-S50A (antibody, V domains shown)
VH: B1 VH with S31D, S50A
VL: B1 VL

- Kd: 708 nM
- koff: 0.023 s⁻¹
- kon: 32400 M⁻¹ s⁻¹
B15: L1VL-V48D (antibody, V domains shown)
VH: B10 VH
VL: B10 VL with K31E, P32Y, V48D

- Kd: 144 nM
- koff: 0.00775 s⁻¹
- kon: 53700 M⁻¹ s⁻¹
B18: L1VL-Q24H (antibody, V domains shown)
VH: B10 VH
VL: B10 VL with Q24H, K31E, P32Y

- Kd: 124 nM
- koff: 0.00341 s⁻¹
- kon: 27500 M⁻¹ s⁻¹
B19: L1VL-P46L (antibody, V domains shown)
VH: B10 VH
VL: B10 VL with K31E, P32Y, P46L

- Kd: 138 nM
- koff: 0.00246 s⁻¹
- kon: 17800 M⁻¹ s⁻¹
B20: L1VH-D99N (antibody, V domains shown)
VH: B10 VH with D99N
VL: B10 VL with K31E, P32Y

- Kd: 855 nM
- koff: 0.0165 s⁻¹
- kon: 19300 M⁻¹ s⁻¹
B30: L1VH-W52L (antibody, V domains shown)
VH: B10 VH with W52L
VL: B10 VL with K31E, P32Y
notes: mutant of the L1 antibody

- Kd: 571 nM
- koff: 0.00131 s⁻¹
- kon: 2290 M⁻¹ s⁻¹
B31: L1VH-D54T (antibody, V domains shown)
VH: B10 VH with D54T
VL: B10 VL with K31E, P32Y

- Kd: 321 nM
- koff: 0.00145 s⁻¹
- kon: 4500 M⁻¹ s⁻¹
B32: L1VL-Y91F (antibody, V domains shown)
VH: B10 VH
VL: B10 VL with K31E, P32Y, Y91F
